Where no end group is shown, it is not given here. [ ]: non-standard residue; d: D form. The star is where a group is joined. Biotin = O=C1N[C@H]2[C@H](CS[C@H]2CCCCC(=O)*)N1; pY = N[C@@H](Cc1ccc(OP(=O)(O)O)cc1)C(=O)O
Assays:
[1] = tested on: melanoma-specific CTL clones; experiment: Auto-presentation assay, TNF release; format: cell-based, human; conditions: clone M117-14, TYR peptide 10 μM, mAb without cross-linking
Method: (§1) 5×10^4 CTLs were incubated with indicated concentrations of peptides in 100 μl final volume. After two hours, supernatants were harvested to test the TNF secretion and lysis was estimated by flow cytometry on the basis of size/granularity patterns as previously described. TNF determinations were performed by a biologic assay using cytotoxicity on the sensitive WEHI 164 clone 13 cells, as compared to a standard curve established using rTNF-β (Genzyme).
Results are illustrated by FIG. 13 showing that CD94-NKG2A inhibits the antigen-specific TNF production by CTL clones. In FIG. 13, the melanoma specific CTL clones M117-14 and 7-10 were stimulated in an auto-presentation assay with their respective cognate peptides (i.e.:EAA for 7-10 and M77-84, and TYR for M117-14) at a concentration of 10 μM, in the presence or indicated mAbs. TNF release was assessed in the supernatant by a biological assay using the WEHI 164, a TNF sensitive cell line. Data from one representative experiment out of five, are expressed as mean TNF (pg/ml)±SD of triplicate samples.

[2] = tested on: melanoma-specific CTL clones; experiment: Auto-presentation assay, CTL lysis; format: cell-based, human; conditions: clone M117-14, TYR peptide, 2 hours
Method: as §1
Results are illustrated by FIG. 14 showing the negative regulation of antigen-induced CTL clone cytotoxicity by CD94-NKG2A. In FIG. 14, cells from the melanoma specific CTL clone M117-14 were stimulated in an auto-presentation assay with the indicated concentrations of cognate peptide (TYR). Cytotoxicity was measured, in the presence or absence of anti-CD94 mAb (HB-3B1). Cell lysis was estimated by flow cytometry on the basis of size/granularity patterns after auto-presentation in a short term assay (2 hours). Data shown are representative from 5 independent experiments.

[3] = target: phosphorylated NKG2A C-term peptide (C-terminal ITIM) (human); experiment: SPR (BIAcore), 25 RU phosphopeptide on streptavidin chip, GST fusion injected
[4] = target: phosphorylated NKG2A N-term peptide (N-terminal ITIM) (human); experiment: as above
[5] = target: phosphorylated NKG2A N-term peptide (N-terminal ITIM) (human); experiment: SPR (BIAcore); lower end of the range, tied by Table 4 to GST-SHP-2.SH2(N+C) and the N-terminal ITIM (1.38)
[6] = target: phosphorylated NKG2A N-term peptide (N-terminal ITIM) (human); experiment: SPR (BIAcore); upper end of the range, tied by Table 4 to GST-SHP-1.SH2(N+C) and the N-terminal ITIM (4.80)
[7] = target: T1, SHIP polyinositol phosphatase from RBL-2H3 cell lysates (rat (cell line RBL-2H3), UniProt P97573 1-1190, limits assumed); experiment: cell lysate adsorption to peptide beads, immunoblot (RBL-2H3)
T1 construct: Detected by immunoblot with anti-SHIP antiserum
T1 sequence (looked up): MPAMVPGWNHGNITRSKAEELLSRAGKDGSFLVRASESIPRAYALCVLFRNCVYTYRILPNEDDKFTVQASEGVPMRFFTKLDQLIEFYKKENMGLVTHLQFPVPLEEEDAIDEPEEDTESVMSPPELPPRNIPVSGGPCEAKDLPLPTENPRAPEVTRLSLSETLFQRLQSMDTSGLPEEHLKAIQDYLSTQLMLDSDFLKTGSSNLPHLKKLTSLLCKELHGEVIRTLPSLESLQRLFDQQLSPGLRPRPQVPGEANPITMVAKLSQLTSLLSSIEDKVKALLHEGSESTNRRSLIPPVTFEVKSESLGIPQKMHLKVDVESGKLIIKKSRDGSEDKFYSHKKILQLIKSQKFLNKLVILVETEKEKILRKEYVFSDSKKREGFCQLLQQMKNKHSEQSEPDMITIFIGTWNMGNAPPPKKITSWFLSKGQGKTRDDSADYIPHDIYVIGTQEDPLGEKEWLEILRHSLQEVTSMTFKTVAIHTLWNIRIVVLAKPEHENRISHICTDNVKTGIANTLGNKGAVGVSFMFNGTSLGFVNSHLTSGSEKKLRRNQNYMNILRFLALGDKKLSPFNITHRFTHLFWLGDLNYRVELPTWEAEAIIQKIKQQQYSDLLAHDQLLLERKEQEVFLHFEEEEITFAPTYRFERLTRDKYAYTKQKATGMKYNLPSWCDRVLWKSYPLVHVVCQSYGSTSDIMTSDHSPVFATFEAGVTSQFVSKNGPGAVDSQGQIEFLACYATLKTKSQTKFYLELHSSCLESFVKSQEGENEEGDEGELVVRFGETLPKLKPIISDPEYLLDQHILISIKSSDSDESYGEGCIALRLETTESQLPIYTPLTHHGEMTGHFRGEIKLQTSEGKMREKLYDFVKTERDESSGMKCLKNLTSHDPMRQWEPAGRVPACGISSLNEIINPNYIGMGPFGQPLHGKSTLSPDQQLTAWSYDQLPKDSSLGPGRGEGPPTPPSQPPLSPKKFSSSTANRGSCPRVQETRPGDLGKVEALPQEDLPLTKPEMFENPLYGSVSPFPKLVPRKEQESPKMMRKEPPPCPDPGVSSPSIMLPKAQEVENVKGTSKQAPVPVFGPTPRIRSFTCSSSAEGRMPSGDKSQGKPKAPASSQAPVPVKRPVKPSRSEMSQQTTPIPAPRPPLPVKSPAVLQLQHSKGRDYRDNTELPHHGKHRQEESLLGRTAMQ

[8] = target: T2, human NKG2A on NKL, M117-14 and 7-10 cells (human, UniProt P26715 1-233); experiment: immunoprecipitation with anti-NKG2A and anti-CD94 mAb
T2 construct: whole, on cells

[9] = target: T3, SHP-1 protein tyrosine phosphatase from RBL-2H3 cell lysates (rat (cell line RBL-2H3), UniProt P81718 1-613); experiment: cell lysate adsorption to peptide beads, immunoblot (RBL-2H3)
T3 construct: Detected by immunoblot with anti-SHP-1 mAb

[10] = target: T4, SHP-2 protein tyrosine phosphatase from RBL-2H3 cell lysates (rat (cell line RBL-2H3), UniProt P41499 2-593); experiment: as above
T4 construct: Detected by immunoblot with anti-SHP-2 mAb
T4 sequence (looked up): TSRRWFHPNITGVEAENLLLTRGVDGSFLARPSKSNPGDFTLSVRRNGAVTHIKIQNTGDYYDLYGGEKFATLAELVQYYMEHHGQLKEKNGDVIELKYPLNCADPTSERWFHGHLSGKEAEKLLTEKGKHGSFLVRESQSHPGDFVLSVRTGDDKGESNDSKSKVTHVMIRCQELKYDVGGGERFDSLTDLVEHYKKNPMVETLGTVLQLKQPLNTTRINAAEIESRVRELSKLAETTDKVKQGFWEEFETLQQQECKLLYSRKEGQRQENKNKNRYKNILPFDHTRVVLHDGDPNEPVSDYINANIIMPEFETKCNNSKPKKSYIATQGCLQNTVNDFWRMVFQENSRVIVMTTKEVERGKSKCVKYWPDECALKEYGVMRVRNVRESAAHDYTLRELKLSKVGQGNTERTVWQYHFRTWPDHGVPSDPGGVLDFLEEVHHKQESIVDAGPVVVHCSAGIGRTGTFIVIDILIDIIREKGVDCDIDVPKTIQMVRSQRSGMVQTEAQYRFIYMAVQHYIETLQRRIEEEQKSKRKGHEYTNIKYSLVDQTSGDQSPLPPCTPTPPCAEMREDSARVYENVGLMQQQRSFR

[11] = target: T5, GST-SHIP.SH2 fusion protein (murine, UniProt Q9ES52 8-104); experiment: SPR (BIAcore), phosphopeptide (25 RU) on streptavidin chip, FIG. 16
T5 construct: also called SH2 domain of SHIP; not shown: Glutathione S-transferase (GST) fusion partner
T5 sequence (looked up): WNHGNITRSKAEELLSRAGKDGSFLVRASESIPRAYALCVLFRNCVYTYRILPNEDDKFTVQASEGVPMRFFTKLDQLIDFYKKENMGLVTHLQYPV
Method: Surface plasmon resonance measurements were performed on a BIAcore apparatus (BIAcore). The GST-SHP1.SH2(NC), GST-SHP2.SH2(NC) and GST-SHIP.SH2 fusion proteins generated from the murine phosphatase cDNAs, were purified from DH5α lysates as previously described. Before their use in BIAcore experiments, fusion proteins were dialyzed in HBS buffer pH 7.4 (10 mM HEPES, 150 mM NaCl, 3.4 mM EDTA). Protein purity was assessed by 12.5% SDS-PAGE, and Coomassie blue staining. The running buffer used in all BIAcore experiments consisted of HBS buffer supplemented with 0.05% surfactant P20. Equilibrium constant determination (koff and kₒₙ) was performed using BIAevaluation 2.0 software. The equilibrium dissociation constants KD were calculated from the koff/kₒₙ ratio.
The measurement of phosphorylated peptide binding to GST-SHP-1.SH2(N+C) and GST-SHP-2.SH2(N+C) fusion proteins was performed at a constant 5 μl/min flow rate. […] Results are expressed as corrected resonance units (CRU) corresponding to the raw RU values after subtraction of background RU value due to the injection medium, koff and kₒₙ were calculated from three independent measurements using the BIAevaluation 2.0 software. In addition, kₒₙ was calculated as the slope of the curve kg=kₒₙ×c−koff, where koff is the off-rate constant and c is the concentration of the soluble recombinant GST fusion proteins. […]

[12] = target: T1, SHIP polyinositol phosphatase from …; experiment: cell lysate adsorption to peptide beads, immunoblot (RBL-2H3), FIG. 15A
Method: In an attempt to characterize the function of these putative ITIMs, cell lysates were incubated with phosphorylated and nonphosphorylated synthetic peptides corresponding to the N-terminal and the C-terminal I/VxYxxL stretches present in NKG2A intracytoplasmic domain. Cell lysates absorbed to peptides were then assayed by immunoblotting for the presence of the phosphatases known to interact with phosphorylated ITIMs, i.e. the protein tyrosine phosphatases SHP-1 and SHP-2, as well as the polyinositol phosphate phosphatase, SHIP. In parallel, lysates adsorption were performed using control peptides corresponding to ITIMs present in Ig-like ITIM bearing receptors such as human KIRs (p58.2/CD158b, a receptor for HLA-Cw3) and mouse FcγRIIB, as well as in mouse lectin-like ITIM-bearing receptor, such as Ly-49A.
As shown in FIG. 15A (lanes 1 and 2), both N- and C-terminal I/VxYxxL stretches present in NKG2A associate with SHP-1 and SHP-2 in vitro, but no binding to SHIP was detected. Similar patterns of association were obtained using the phosphorylated ITIM peptides of […] and p58.2 KIR (FIG. 15A, lanes 3 to 5). In contrast, FcγRIIB phosphorylated ITIM peptides also associate with SHIP (FIG. 15A, lane 6). No association of phosphatases with nonphosphorylated peptides corresponding to FcγRIIB (FIG. 15A, lane 7) and NKG2A N- and C-terminal I/VxYxxL stretches was detected. When nonphosphorylated and phosphorylated peptides were used to adsorb lysates prepared from ³⁵S methionine/cysteine-labeled cells, only two bands around 64 and 68 kDa selectively associate with both phosphorylated NKG2A N- and C-terminal I/VxYxxL stretches, as compared to nonphosphorylated ones (FIG. 15B). The 64 and 68 kDa proteins which bind to phosphorylated NKG2A peptides correspond to SHP-1 and SHP-2 apparent molecular weight respectively, supporting the immunoblotting results. Therefore, our results define the two NKG2A I/VxYxxL stretches as ITIMs which appear to function similarly to other ITIMs present in inhibitory receptors for MHC class I molecules, i.e. KIRs and Ly-49 molecules. Using recombinant soluble tandem SH2 domains of SHP-1 and SHP-2, we confirmed by surface plasmon resonance that both NKG2A ITIM phosphopeptides directly associate with the SH2 domains of SHP-1 and SHP-2, but not with the SH2 domain of SHIP (FIG. 16).

T3 sequence (P81718 whole entry): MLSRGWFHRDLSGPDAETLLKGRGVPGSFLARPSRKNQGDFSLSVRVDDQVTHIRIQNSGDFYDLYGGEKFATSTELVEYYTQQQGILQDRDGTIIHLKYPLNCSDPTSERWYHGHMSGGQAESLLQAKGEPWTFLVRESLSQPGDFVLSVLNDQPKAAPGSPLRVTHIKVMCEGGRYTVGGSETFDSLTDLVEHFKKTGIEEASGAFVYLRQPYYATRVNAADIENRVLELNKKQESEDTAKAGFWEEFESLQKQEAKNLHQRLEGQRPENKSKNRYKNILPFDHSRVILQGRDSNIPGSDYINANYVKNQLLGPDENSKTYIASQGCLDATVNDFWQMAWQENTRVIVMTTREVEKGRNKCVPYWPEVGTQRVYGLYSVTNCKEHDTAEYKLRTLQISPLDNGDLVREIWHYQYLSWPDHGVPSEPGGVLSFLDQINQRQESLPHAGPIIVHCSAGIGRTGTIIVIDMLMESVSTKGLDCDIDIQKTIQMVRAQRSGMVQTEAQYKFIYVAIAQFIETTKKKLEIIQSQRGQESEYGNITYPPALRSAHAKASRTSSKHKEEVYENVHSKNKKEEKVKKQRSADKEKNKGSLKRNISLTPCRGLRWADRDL
T2 sequence (P26715 whole entry): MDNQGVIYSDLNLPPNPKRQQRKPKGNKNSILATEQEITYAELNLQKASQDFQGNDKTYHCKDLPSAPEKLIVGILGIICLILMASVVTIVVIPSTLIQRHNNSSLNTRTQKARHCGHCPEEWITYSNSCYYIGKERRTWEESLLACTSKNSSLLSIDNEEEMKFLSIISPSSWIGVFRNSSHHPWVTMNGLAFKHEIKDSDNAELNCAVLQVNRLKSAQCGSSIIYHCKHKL

**Q.** What does the source list for Y1MDGTMSQV9 [TYR]?
**A.** TNF production [1]: released TNF; CTL lysis (auto-toxicity) [2]: lysed in a dose-dependent manner

**Q.** How did the Kd [3] turn out when “GST-SHP-2.SH2(N+C) fusion protein (from UniProt P35235 1-220)” was run?
**A.** Its Kd is 1.57 nM.

**Q.** And the koff [3]?
**A.** The koff was 0.00132 s⁻¹.

**Q.** And the kon [3]?
**A.** Its kon is 840000 M⁻¹ s⁻¹.

**Q.** And the Kd [4]?
**A.** Its Kd is 1.38 nM.

**Q.** What about the koff [4] of the same molecule?
**A.** The koff was 0.00142 s⁻¹.

**Q.** And the kon [4]?
**A.** Its kon is 1.03e+06 M⁻¹ s⁻¹.

**Q.** And the Kd [5]?
**A.** Its Kd is 1 to 5 nM.

**Q.** What does the source list for “GST-SHP-1.SH2(N+C) fusion protein (from UniProt P29351 1-217)”?
**A.** Kd [3]: 2.83 nM; koff [3]: 0.00117 s⁻¹; kon [3]: 410000 M⁻¹ s⁻¹; Kd [4]: 4.8 nM; koff [4]: 0.00189 s⁻¹; kon [4]: 390000 M⁻¹ s⁻¹; Kd [6]: 1 to 5 nM

B1: non-phosphorylated NKG2A N-term peptide (peptide)
peptide: Biotin-MDNQGVIYSDLNL
notes: also called nonphosphorylated NKG2A N-terminal I/VxYxxL stretch
**Q.** Does B1 bind [7]?
**A.** Result: no binding

B2: human CD94 on NKL, M117-14 and 7-10 cells (receptor, UniProt Q13241 1-179, looked up)
chain: MAVFKTTLWRLISGTLGIICLSLMSTLGILLKNSFTKLSIEPAFTPGPNIELQKDSDCCSCQEKWVGYRCNCYFISSEQKTWNESRHLCASQKSSLLQLQNTDELDFMSSSQQFYWIGLSYSEEHTAWLWENGSALSQYLFPSFETFNTKNCIAYNPNGNALDESCEDKNRYICKQQLI
notes: whole, on cells
**Q.** Does B2 bind [8]?
**A.** Result: binds

B3: phosphorylated FcγRIIB-I260A peptide (peptide)
peptide: Biotin-KTEAENTAT[pY]SLLK
notes: also called FcγRIIB 1-I260A; mutated FcγRIIB ITIM
**Q.** What does the source list for B3?
**A.** binding result [9]: no binding; binding result [10]: no binding

B4: phosphorylated NKG2A N-term peptide (N-terminal ITIM) (peptide)
peptide: Biotin-MDNQGVI[pY]SDLNL
notes: also called NKG2-A N-terminal ITIM; NKG2A/B phosphorylated ITIM peptide
**Q.** Does B4 bind [11]?
**A.** Result: no binding (tested: 100 nM)

**Q.** Does B4 bind [12]?
**A.** Result: no binding

— patent publication US20040038894A1, “Compounds for modulating cell negative regulations and biological applications thereof” (INSTITUT NATIONAL DE LA SANTE ET DE LA RECHERCHE MEDICALE …, priority 1996, published 2004)
